Results: a protein production outcome set (Wang et al. 2014)

Experiment: label from the status in PepcDB records

With “MKSWIVKEIKINGLSYFGPLIFTVLPIAERIYKISLNSYIMINYLILVIFLSFICTYLVLSNLFNGIMYTLTYTVGISPKEIILTRLFLFSTIPVLPIAMALWMTSSLTTLAKFIIQIYILVLMSTIIGIIFKNDIIALIMDFIISALGLSVKINFLFPFLSGQLNPLSGIIVVLLLALTIYLLSNVELQKVERV” the protein production was “failed”.

With “QQVTEPEETKETLQHLLDDTASGKMVQLTFVGESAEQPLITEMIRNFNVSVNILQGKISQTKDGAYGSLFIHIDGDEEEVQNVIRFINDKQVKAEVITNV” the protein production was “not failed”.

With “VKNGNDTRMTLLNNWESTYFDFDENKLIGLMDEATKLGVDMFLLDDGWFANKYPRSSDHQGLGDWEETADKLPNGVGRLVEEAQKKGIKFGIWIEPEMVNPKSELYEKHKDWVIHLPNRDEYYFRNQMVLDLSNPKVQDHVFGVVDNLMTKYPGIAFFKWDCNSPITNIYSVYLKDKQSHLYVDYVRGLYKVLDRIKAKYPNLPMMLCAGGGGRSDYEALKYFTEFWPSDNTDPIERLFIQWGYSQIFPSKTLCAHVTTWNRGTSIKFRTDVAMMCKLGFDIKLEDMNQNEHLYCDQAVKNYNRLKPVILEG” the protein production was “failed”.

For “METTDHSTPQCGSASAGGQKTVGKDDYLLIEAVNKGDADRVQQLLEQGADANVCEESGGWTPLHNAVQSGRVDIVNLLLRYGADPHRRKKNGATPFIVAGICGDVSLLQIFLSRGANINERDMYGFTAFMEAAEYGNVEALKFLFAEGADVNLRRETTEDRRRLKQGGATALMSAAENGHPEVVRILLDEMKAEADARDNMGRNALIRSLLNRDCENVEIHVEEITSVLIQYGADINVRGEGEKTPLISAVKRKHTGLVQMLLSQEGIKVNDRDSEGKTALQIAVELKLKEIVRLLLEKGADTKCGDLVWIAKRNYDHGLVKLLLSYEANHDTNPPAKDWLPHSARWGEALERLHSVSRPMTGKLKIFMNDDYKIASTSEGGIYLGIYDNREVAVKVFCENSSRGRKEVSCLRDCGDHSNLLTFYGSEEHKGSLYVCVSLCESTLEKFLNVPREEPMEKGEDKFALSVLLSIFKGVQKLHMHGYSHQNLQPPNILIDSEKAVRLADFDESIQWMRESQTVQRDLEDLGRLVLYVVNKGEIPFETLKGQNDEELLTIAPNEETKDLVHCLFSPGENVKNCLMDLLGHPFFWTWENRYRTLRDVGNESDIKVRNNKSKLLKLLQPQTHAPSRSFDRWTSKIDKRVMSDMNGFYKSRKGYRDTVGDLLKFIRNIGEHINEEKNRQMKEILGDPSRYFQETFPDLVIYIYKKLKETEFRKHFPQPPPSLSVPEAAGPGGVQS”, the protein production was “failed”.

In the case of “MSRGDKMLKFEIKARDGAGRIGKLEVNGKKIETPAIMPVVNPKQMVVEPKELEKMGFEIIITNSYIIYKDEELRRKALELGIHRMLDYNGIIEVDSGSFQLMKYGSIEVSNREIIEFQHRIGVDIGTFLDIPTPPDAPREQAVKELEITLSRAREAEEIKEIPMNATIQGSTYTDLRRYAARRLSSMNFEIHPIGGVVPLLESYRFRDVVDIVISSKMALRPDRPVHLFGAGHPIVFALAVAMGVDLFDSASYALYAKDDRYMTPEGTKRLDELDYFPCSCPVCSKYTPQELREMPKEERTRLLALHNLWVIKEEIKRVKQAIKEGELWRLVDERARSHPKLYSAYKRLLEHYTFLEEFEPITKKSALFKISNESLRWPVVRRAKERAKSINERFGELVEHPIFGRVSRYLSLTYPFAQSEAEDDFKIEKPTKEDAIKYVMAIAEYQFGEGASRAFDDAKVELSKTGMPRQVKVNGKRLATVRADDGLLTLGIEGAKRLHRVLPYPRMRVVVNKEAEPFARKGKDVFAKFVIFADPGIRPYDEVLVVNENDELLATGQALLSGREMIVFQYGRAVKVRKGVE”, the protein production is reported as “not failed”.

In the case of “MSVMYKKILYPTDFSETAEIALKHVKAFKTLKAEEVILLHVIDEREIKKRDIFSLLLGVAGLNKSVEEFENELKNKLTEEAKNKMENIKKELEDVGFKVKDIIVVGIPHEEIVKIAEDEGVDIIIMGSHGKTNLKEILLGSVTENVIKKSNKPVLVVKRKNS”, the protein production is reported as “not failed”.

With “MTEGRVIDVDVSSEMESSFLEYAVSVIHSRALPDARDGLKPVQRRIVYQMGDMGLRPERGHVKSSRIVGDVMGKLHPHGDTAIYDALVRLSQSFIMRVPLVDGHGNFGSLDDGPAAPRYTEARLTSASMQMIAGLDEDVVDFVGNYDNTLTQPEVLPSAFPNLLINGTSGIAVGMATNMAPHNPGEVIAACCHLIRNPEAGLAELMRFIPGPDLPTGGRIIGLDGVREAYETGRGTFRTRATVSIENINARRKGIVVTELPYLVGPEKVVSKVKDAVGAKKLTGIASIDDYSDRKNGMRLVIGIKNGFNPEAVLAELYRQTPLEESFSMNNVCLVDGQPRTLGLRELLTVYLAHRIDVIRRRTVFQLRKAKDRLHLVEGLLIAILDIDEVIQLIRSSDDAATARTRLMDVFELSELQATYILDLQLRRLTKFSRIELEAERDELRKKIAYLEDLLADEAKLRELVATELEATAEAIGSPRRTVLIEGSMKELSAKGKKAQADLKIADAPCRVLLSTSGRIARTADASPLQRVGKRSSHDALRSEIVSTTQGKVGAVTSTGRLHMVDVVDLPALPPAATRPNVAGGVKIADYVTLEKNETVLGLIDLDREFVLGTAGGVVKRVSVAARPNKSEWEAITLKGKDSVIGVAQPKDIDESLAVFVTSNAQLLAFDASGLRAQGWNASGVAGMKVAADARALFFGMTPKAAKTDEEGDADTNIGTFAVVTVASGENFYGAPSSSIKVSDFSEYPTKGRATSGVRAHKFLKGETELSLAWVGDSPQAAAQAGGARTLPAEMSRRDATGSPLESKIDVIGTVPRLGDAEAALSGGGAGAGDSGAAGTDASGDGGAASGGGSSSSAATRTQGLATNFGELDLDLDGGPDLDEAKEEIARSKIDSDDAVIVSHDDDDDDDTALF” the protein production was “failed”.

With “MKSKRGFTLLEVLVALAIFATAAISVIRSVSQHINTVNYLEEKMFAAMVVDNQMAQVMLNPQSLAAREGSEQMAGRTWYWKLSPVKTADNLLKAFDVSVATEKGATPVVTVRSYVAN” the protein production was “failed”.

With “MNEFETLLNSVEDVKVRDVVKGEILSVENGQATVAIVGTGVEGVLTLREITNDKDADINTFVKPGDVLDLLVIKQIVGKEAEGANVYLLSLKRLEARKAWTQLEGKEGEIVTVKVTKDVKGGLSVDYNGVRGFIPASMIDTYFVKDTKKFVGEEIEAKIIEVNASENRFILSRRAVVEAEAIEMRKEAFAQLQEGDIVEGTVSRVTNFGAFVDLGGIDGLVHVSELSHSRIKRPSDAVKPGDVVNVKILKLDPEAGRLSLSLKATQPGPWEQVEEKAPVGSTVEGTVKRLTDFGAFVELYPGVEGLVHVSQISWERVENPKDVLKVGQVVNVKVLDVKPAEERISLSIKALEEAPARPARNNDNDGEKRDRKPRAPRKAAKPSYDLPETQEGFSLADFLGEDFDINDLLEHHHHHH” the protein production was “not failed”.

For “MLLKRSLPKMRWKSWVKPWQQLDWPLFCLPVGVSIFGGLMILSTELKQPVTDWWWHWLIAGIGVFIALFLARCRYDNLLQWHWITYVLTNISLITVMAAGTSAKGAQRWLTIGGFNVQPSEFAKIGVIITLAALLHKHTATRIEDVFRALAITAIPWLLVFVQPDLATSLVFGAIVLGMLYWANANPGWLLLMISPIIAAILFTMSWPLSTPIILFKEIFITPFGVAWAIGMAILGWLTLPWRRFNMGTIGAFSLNLLGGELGIFAWNHVLKEYQKNRLTAFINPEQDPLGSGYHLIQSRIAIGAGEMWGWGLFKGPMTQLNFVPEQHTDFIFSAIGEEFGLFGCLIVLFVFCLICWRLLHVAQTAKDNFGSLLAIGVLSMIIFQLVVNVGMNVGLAPVAGIPLPWMSYGRSAMLTNFIALGIVESVANFRQRQKYYF”, the protein production was “failed”.

In the case of “MLVWLSDSQAVALVGLVGGIALGLAARLGRFCTLGAIEDLLYGGSDVRMRMWVLAIGAAMAGSFGLMGLGWLDPGQSYYLSIRWMPLASILGGLMFGYGMALAGNCGYGSIARLGGGDLRAFVIVLVMGVFTYVTLAGPLAPLRNLLFPQIEVAGDLPPGLAHHAHALTGLPVHVIGIGIGLILCLGALSSRDMRQEPKSIFWSLVVAAAIVGGWAGSYWVYQHGFDGLQVVSHSFSAPVGESILYAMTGSVRPLSFAVGSVAGVWAGAFIGSLIKGHFRWEACEDPRELRRQILGAAIMGTGAVIAMGCTVGQGLTAFSLLAISAPVTFLAIFAGAALGLRQLIEGFSAAE”, the protein production is reported as “failed”.

With “MDATMHLFREKSSIGRLNLARVGLLDCIFGVRLNVEYKKTVEIFDCAGHNHRSGGIRNHRPTNSQGNSHKIKWKNLLLAPYTLVHVLVPPDLNKTCCDCGVYALKYIECHFMGLSLDMLDDVNIKDARLRIAVDLWKAAFDPVFIDRMTKYKPPKINSEIIDINLSVKLLKLNLIDNILEGPLSESITRSKTLLELDNMLEPNCI” the protein production was “failed”.

For “MLVNGQHYHLINDISGEKPVLLMLHGFTGSSETFQDSISLLKEHFSIIAPDLLGHGKTSCPKEVARYSIENICDDLASILHQLKIDSCFVLGYSMGGRVATAFAAKYKELVRGLVLVSSSPGLRDEKARASRISADNRLADTLDADGIEPFVAYWENLALFASQKNLPFALKKRIRLERLAQNPHGLAKSLRGMGTGKQPSYWENLADFTFPVLLITGNLDEKFEKIAREMKQLLPNSTHVTVQEAGHAVYLEQPNIFSSQLIYWLEGILKEEEK”, the protein production was “failed”.

With “ATFFIKMNQKTVPEFKNKHLRLAISQAINKKGYVNSVLNDGSLPSNNFTGVGTADTPDGKDFARTIKSPLKFNPDLAKKNWREAQKELGKNKFTFTMNTQDTPASKIAAEYIKSQIESHLPGVTLKIKQMPFKQKTTLELANNYEASYSGWSPDYPDPTAFLQTMTKNNAQNNTDWSNKEYDQLLKDANSKLLRKLGERNTSLQKAEYILLHEAPVAPVYQ” the protein production was “failed”.

With “MSLYTILVVDDSPMIVDVFVTMLERGGYRPITAFSGEECLEALNATPPDLVLLDIMMEPMDGWETLERIKTDPATRDIPVLMLTAKPLTPEEANEYGSYIEDYILKPTTHHQLYEAIEHVLARRHSIAADEGHHHHHH” the protein production was “not failed”.

With “RFLEDMTIGERREVGTFTFTADAIKTFAAQFDPQPFHLDEEAGKNSLFGGLAASGWHVAAVCMKLMVADAQRESAEAAKRGELVATGGPSPGFRELRWLKPVLAGDTITYYKQVESLRPSDSRPQWGIMQARNTGINQRGEVVFSFLATAFVPRRPNA” the protein production was “failed”.

For “QAIHNDKSLLSPFSELNTDNRTKREESGSTFKEQKGGEFSKLLKQSINELNNTQEQSDKALADMATGQIKDLHQAAIAIGKAETSMKLMLEVRNKAISAYKELLRTQI”, the protein production was “failed”.

In the case of “MKFLELNKKRHATKHFTDKLVDPKDVRTAIEIATLAPSAHNSQPWKFVVVREKNAELAKLAYGSNFEQVSSAPVTIALFTDTDLAKRARKIARVGGANNFSEEQLQYFMKNLPAEFARYSEQQVSDYLALNAGLVAMNLVLALTDQGIGSNIILGFDKSKVNEVLEIEDRFRPELLITVGYTDEKLEPSYRLPVDEIIEKR”, the protein production is reported as “not failed”.

For “MSFSLWLLVLGCILLTLGLASAYLRLLPVSTSFIYLLFGLAIGPAGLHAWRSGLADISGWFEHLSEAALLISLFIGGLKLRLPLRSPAWTAAWLLAGPVLLGCILGLTLGAHFLFGLDWGLALLVAAILAPTDPVLASDIQVNHAGDDDRLRYAVSGEAGLNDGIAFPFVIAALLLIGQGGGLPGEFDRSGLDWLLRDVLWAIPLGLLVGYCLGHGLGRLAIHLRARHTDTSVSANDFLALALIALSYVGADALGGWGFLASFAAGIGLRHAEVATLGRASAPAEAQAAAADVREAGQASGAIEYGADRSEHPKVAAGAVMLDVLSFGNLLERSLEVLLVTLLGAMLYQHWDWRALPLALLLFCVCRPAMVWLLVGRRLMHPAQRRLLGWFGIRGIGSLYYLSYALNQGLPTALAHTASDLVLSLVALSICVHGLSIQPLLMRHARSVSRRDRE”, the protein production was “failed”.

With “MRYGRTVPVTEAAELPPAPEQAREVFGDRFADAVRYAELLAEAGVQRGLIGPREVPRLWERHLLNCAVLSEVVPEGVTVCDVGSGAGLPGIPLALVREDLKITLLEPLLRRTNFLTEVVELLGLDHVTVIRGRAEEVMGKIPPVHVVTARAVAPLDRLATWGIPLLRPYGEMLALKGDTAEEELKSAATALSKLGAVETSVLHVGEGVVDPLSTVVRVEVGESPGGVRFAAKRAKAARTGRTRRRR” the protein production was “failed”.
